According to the nanobody polyreactivity screen of Harvey et al. (2022):

Assay: yeast display, Sf9 membrane polyspecificity reagent, FACS + sequencing; frameworks hold sequencing errors
Method in brief: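 Galactose-induced (36–48 hours) yeast carrying a synthetic nanobody display library were exposed to 10% biotinylated, detergent-solubilized Sf9 membrane reagent at 4 °C for 1 hour. FACS followed streptavidin microbead enrichment, using low and high (top ~1%) gates for expression (anti-HA) and reagent binding (streptavidin). Colony PCR, MiSeq 2 × 250 sequencing and CDR-length filtering followed. Labels for polyreactivity reflect the gate of origin.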

QVQLVESGGGLVQAGGSLRLSCASSVSTVKYAMGWYRQAPGKERELVAAISKSAGRTYYADSVKGRFTISRDNAKNTVYLQMNSLKPVDTAVYYCADRQSYYGDDYWGQCTQVTVSS
polyreactivity (PSR sort gate): high polyreactivity

QVQLVESGGGLVQAGGSLRLSCADSGRTFSPYAMGWYRQAPGKDRELVAAITSGGRTNFADSVKGRFTISRDNAKNTVYLQMNSLKPEDTAVYYCAARSGRYRWTRFDYWGQGTQVTVSS
polyreactivity (PSR sort gate): low polyreactivity

QLQLEDSGGGLVQAGGSLRISCAASARIVGGNTMGWYRQAPGKERELVAAITYRGGSTYYADSVKGRFTISRDNAKYTVYLQINSLKPVATAVYYCATAGYWGGDYWGQGTQVTVSS
polyreactivity (PSR sort gate): low polyreactivity

HVQLVESGGGLVQAGGSLRLSCAASGFTFVPYAMGWYRQAPGKERELVAAISSGGSTYYADSVKGRFTISRDNAKNTVYLQMNSLKPEDTAVYYCATTGWYRYGRKFYYWGQGTQVTVSS
polyreactivity (PSR sort gate): high polyreactivity

QVQLVESGGGLVQAGGSLRLSCAASGRTFRLYAMGWYRQAPGKERELVASISRSVGSTYYADSVKGRFTISRDNAKNTVYLQMNSLKPVDTAVYYCAARSYIPGGWYGAYYYWGQGTQVTVSS
polyreactivity (PSR sort gate): high polyreactivity

QDQLVESGVGLVHAGGSLRLSCAATGRIFTYNAMGWYRQAPWKEREVVAAITSSGGSTYYADSVKGRFTISRDNAKNTVYLQMNSLKQEDSAVSYCATVRRGRDYWGQGTQVTVSS
polyreactivity (PSR sort gate): high polyreactivity

QVQLVESGGGLVQAGGSLRLSCAASGLTFEKYSMGWYRQAPGKERELVAAISQDGGSTYYADSVKGRFTISRDNAKNTVYLQMNSVKPEDTAVYYCAAEDPDSWLPWDLFDYWGQGTQVTVSS
polyreactivity (PSR sort gate): low polyreactivity

QVQLVESGGGLVQAGGSLRSSCAASGSLFTSNTMGWHRQAPGKERELVAAITSSGGSMFYADSVKGRFTISRDNAKNTVYLQMNSLKPEDNAVYYCAADTIGYHDWYDYWGQGTQVTVSS
polyreactivity (PSR sort gate): low polyreactivity

QVQLVESGGGLVHAGGSLRLSCAASGSIFVGYAMGWYRQAPGKERELVARISRSGTSTYYADSVKGRFTISRDNAKNTVYLQMNSLKPEDTAVYYCNATVSRYSGYQRGHYWRYDYWGQGTQVTVSS
polyreactivity (PSR sort gate): high polyreactivity

QVQHVESGGGLDQAGGSLRLSCAASGRIFYANAMGWYRQAPRKERELVAAIDWSGGSTYYADSVKGRFTISRDNAKNTVYLQMNSLKPEDTAVYYCAGPYHYYGNSVGYADYVYWGQGTQVTVSS
polyreactivity (PSR sort gate): low polyreactivity

QVQLVDSGGGLVQAGGSLRLSCAASGFNFDRNTMGWYRKAPGKERELVATISSTGTTNYADSVKGRFTISRDNAKNTVYLQMNSLKPEDTAVYYCNAYPRWRYVSYYRSYRYDYWGQGTQVTVSS
polyreactivity (PSR sort gate): high polyreactivity

QVQLVESGGGLVQAGGSLRISCAASGIIFVWNAIGWYRQAPGKERELVADISWSSGRTYYADSVKGRFTISRDNAKNTVYLQMNSLIPEDTAVYYCATDDFWNVIFYAYYPEFDYWGQGTQVTVSS
polyreactivity (PSR sort gate): low polyreactivity

QVQLVESGGGLVQAGGSLRLICAASGFIFSSYAMVWYRQAPGKERDLVAAISQTVGGTYYADSVKGRFTISRDNAKNTVYLQMNSLKPEDTAVYYCAADVYTASDRYWHDYWGQGTQVTVSS
polyreactivity (PSR sort gate): low polyreactivity

QVQLVESRGGLVQAGGSLRLSCAASGRIFAYYAKGWYRPAPGKERELVAAIRGSGGSTYYAESVKGRFTISRDNAKNTVYLQMNSLKPEDTAVYYCAARTQPKKFYYWGQGTQVTVSS
polyreactivity (PSR sort gate): high polyreactivity

QVQLEESGGGLVQAGGSLRLSCAASGITFERYVMGWYRQAPGKERELVASISRSGSTYYADSVKGRFTISRDNAKNTVYLQMNSLKPEDTAVYYCNADRFWFHWVYSRYHYDYWGQGTQVTVSS
polyreactivity (PSR sort gate): high polyreactivity

QDQLVESGGGLVQAGGSLRLSCAASGRTFRVYAMGWYRQAPGKERELVATITSSGGSTYYADSVKGRFTISRDNAKNTVYLQMNCLKPEDTAVYYCAADGGSASIHDYWGQGTQVTVSS
polyreactivity (PSR sort gate): low polyreactivity

QVQLVESGGGLVQAGGSLRLSCAASGFIFYGNAMGWYRPAPGKERELVAAIRWNGGRTYYADSVKGRFTISRDNAKNTVYLQMNSLKAEDTAVYYCAARISQLKYGYWGQGTQVTVSS
polyreactivity (PSR sort gate): high polyreactivity

QVQLVESGGGLVQAGGSLRLSCAASGSIFFGYAMGWYRQAPGKERELVAAISTRGGRSYYADSVKGRFTISRDNAKNTVYFQMNSLKPVDTAVYYCNAASLVQAYSHADERYDYWGQGTQVTVSS
polyreactivity (PSR sort gate): high polyreactivity

QVQLLESGGGLVQARGSLRLICAASGRIFTDNAMGWYIQAPGKERELVATISKRGGRTYYADSVKGRFTISRDNAKNTVYLQMNSLKPEDTAVYYCNARPYWIDGSGLFPYDYWGQGTQVTVSS
polyreactivity (PSR sort gate): high polyreactivity

QVQLVESGGGLVQAGGSLRLSCAASGRTFGSYAMGWYRQAPGKERELVAAIRYRGGSTYYADSVKGRFTISRDNAKNTVYLQMNSLKPEDTAVYYCAAKQGRYNIYSNYDYWGQGTQVTVSS
polyreactivity (PSR sort gate): high polyreactivity

QVQLVESGGGLVQAGGSLRLSCAASGSIFPSYAMGWYRQAPGQERELVATIGRGGTTNYADSVKGRFTISRDNAKNTVYLQMNSLKPEDTAVYYCNAERIWRYKYGYDYWGQGTQVNVSS
polyreactivity (PSR sort gate): high polyreactivity

QVQLVESGGGLVQAGGSLRLSCAASGFIFGYYAMGWDRQAPGKERELVAAITSDGNTDYSDSVKGRFTISRDNAKNTVYLQMNSLKPEDTAVYYCATDWVDHYDYWGQGTQVTVSS
polyreactivity (PSR sort gate): low polyreactivity
